Data published in article doi:10.1101/2022.12.30.522308 (bioRxiv, 2022).
Where two headings read alike, the source gives them in different places.

Experiments:
[1] = target: T1, non-glycosylated binary hIL-9:hIL-9Rα complex (human, UniProt P15248 19-144; Q01113-1 40-261); test: ITC
[2] = target: T1, non-glycosylated binary hIL-9:hIL-9Rα …; test: ITC; remark: listed apart in the source
[3] = target: recombinant human IL-9 (R&D Systems) (Homo sapiens, UniProt P15248); test: BLI
[4] = target: recombinant mouse IL-9 (R&D Systems) (mouse, UniProt P15247); test: BLI
recombinant mouse IL-9 (R&D Systems), sequence (P15247 19-144): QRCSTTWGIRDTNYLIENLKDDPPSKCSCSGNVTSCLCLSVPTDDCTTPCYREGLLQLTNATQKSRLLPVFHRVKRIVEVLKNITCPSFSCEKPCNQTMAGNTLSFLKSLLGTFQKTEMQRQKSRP

recombinant human IL-9 (R&D Systems), sequence (P15248 19-144): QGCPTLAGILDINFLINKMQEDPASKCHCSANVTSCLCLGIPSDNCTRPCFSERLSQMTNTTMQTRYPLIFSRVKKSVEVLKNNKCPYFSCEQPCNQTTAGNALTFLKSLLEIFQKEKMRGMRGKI
T1 sequence (P15248 19-144, chain 1 of 2): as the sequence (P15248 19-144) above
T1 sequence (Q01113 40-261, chain 2 of 2): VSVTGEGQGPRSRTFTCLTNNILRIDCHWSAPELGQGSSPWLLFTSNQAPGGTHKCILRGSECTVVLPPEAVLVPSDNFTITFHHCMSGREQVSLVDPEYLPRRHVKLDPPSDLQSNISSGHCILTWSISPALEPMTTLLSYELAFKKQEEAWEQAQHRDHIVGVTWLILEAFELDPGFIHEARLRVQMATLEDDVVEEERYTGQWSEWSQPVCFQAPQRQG

B1: trimmed extracellular domain of human common gamma chain (hγc, residues 56-254), produced in Sf9 cells (receptor, UniProt P31785-1 56-254, looked up)
chain: PLPEVQCFVFNVEYMNCTWNSSSEPQPTNLTLHYWYKNSDNDKVQKCSHYLFSEEITSGCQLQKKEIHLYQTFVVQLQDPREPRRQATQMLKLQNLVIPWAPENLTLHKLSESQLELNWNNRFLNHCLEHLVQYRTDWDHSWTEQSVDYRHKFSLPSVDGQKRYTFRVRSRFNPLCGSAQHWSEWSHPIHWGSNTSKEN
Kd [1]: 9000 nM | Kd [2]: 2500 nM

B2: anti-hIL-9 monoclonal antibody 6E2 (antibody, V domains shown)
VH: QVQLVESGGGLVQPGGSLRLSCAASGFTFSSSAMGWVRQAPGKGLEWVSTIVNSITTTYYADSVKGRFTISTDNAKNTLYLQIDSLKSEDTAVYYCGSLAGPYYDYWGQGTQVTVSS
VL: ALTQPSTVSVSLGQTARITCQGGSLGSYDAHWYQQKPGQAPVLVIHDNNSRPSGIPERFTGSRSGETATLTISGAQTEDEADYYCQSYDSTSDALVFGGGTQLTVL
Kd [3]: 0.24 nM

B3: anti-mIL-9 monoclonal antibody 35D8 (antibody, V domains shown)
VH: QVQLVESGPGLVQPSQTLSLTCTVSGGSITTSYYDWSWIRQPPGKGLEWMGAIAYSGNAYYSPSLKSRTSISRDTSKNQFTLQLSSVTPEDTAVYYCAREDHYSDTHGWNDYWGQGTQVTVSS
VL: ALTQPSAVSVSLGQTARITCQGGSIGNFGATWYQQKPGQAPVLLSLGEHSRPSGIPERFSGSKSGGTATLTISGAQAEDEADYYCQSFDYIGNDHVFGGGTHLTVL
binding result [4]: binds

B4: anti-hIL-9 monoclonal antibody 7D6 (antibody, V domains shown)
VH: QLQLVESGPGLVKPSQTLSLTCTVSGGSITTGYYAWSWIRQPPGKGLEWMGFIARDGSTSYSPSLKSRTSISRDTSKNQFSLQLSSVTPEDTAVYYCARAGEGRSWYPGYYYGMDYWGKGTLVTVSS
VL: QAVVTQEPSLSVSPGGTVTLTCGLSSGSVTSSNYPGWYQQTPGQAPRVLIYNTNSRHSGVPSRYSGFISGNKAALTITGAEPEDEADYYCHLHKGSTGVFGGGTHLTVL
Kd [3]: 1.8 nM
